{"source": "patent US20250026842A1", "key": {"[1]": {"molecular_target": "human 4-1BB on the surface of HEK293-Hu4-1BB cells (human) (UniProt Q07011)", "sequence (Q07011 24-255)": "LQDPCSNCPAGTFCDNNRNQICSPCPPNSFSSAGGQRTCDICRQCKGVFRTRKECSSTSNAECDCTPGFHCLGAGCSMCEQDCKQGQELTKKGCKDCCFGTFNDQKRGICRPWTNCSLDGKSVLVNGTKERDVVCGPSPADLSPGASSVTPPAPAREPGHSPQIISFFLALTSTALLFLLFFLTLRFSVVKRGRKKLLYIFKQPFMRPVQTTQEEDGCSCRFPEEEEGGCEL", "assay": "FACS on HEK293 cells highly expressing human 4-1BB"}, "[2]": {"molecular_target": "human 4-1BB on the surface of HEK293-Hu4-1BB cells (human) (UniProt Q07011)", "assay": "cell-based or functional assay"}}, "data": [{"substance": "isotype IgG1 antibody", "values": [{"measurement": "Maximal fluorescence value", "setting": "[1]", "result": 67}, {"measurement": "Emax, 4-1BB/NF-κB luciferase reporter, FcγRIIb cross-linking (relative to antibody-free group)", "setting": "[2]", "result": 1.12}, {"measurement": "Emax, 4-1BB/NF-κB luciferase reporter, no FcγRIIb cross-linking (relative to antibody-free group)", "setting": "[2]", "result": 1.1}]}]}
